Reference: patent publication US20210324351, “STRUCTURE OF THE HUMAN CGAS-DNA COMPLEX AND USES THEREOF” (Presodent and Fellows of Harvard College, published 2021)

Legend:
[1] = target: mcGAS catalytic domain WT (UniProt Q8C6L5 SEQ:1-361); assay: EMSA; gradient dialysis to 50 mM KCl, 4 C; minimal complex plus higher-order oligomers; details: tags: untagged (6xHis-SUMO2 removed with SENP2)
Procedure: (§1) cGAS-DNA complexes were stably assembled using a method adapted from a nucleosome assembly gradient dialysis protocol (Lee and Narlikar (2001) Current protocols in molecular biology Chapter 21, Unit 21.26), and complex formation was measured by electrophoretic mobility shift analysis. Briefly, a concentration gradient of recombinant protein (0.2, 0.4, 2, 10 μM) was incubated with 45 bp dsDNA (2 μM) in a high-salt buffer containing 20 mM HEPES-NaOH pH 7.8, […], 1 mM DTT at 4° C. for 20 min. The reconstitution mixture was then transferred into 8-10 kDa molecular weight cut-off dialysis tubing (Spectrum Labs), and placed into a beaker of the high-salt buffer. The KCl concentration was reduced gradually by slowly replacing high-salt buffer with low-salt buffer (20 mM HEPES-KOH pH 7.5, 50 mM KCl, 1 mM DTT) with a peristaltic pump (Bio-Rad) at a rate of […] for 48 hr at 4° C. After gradient dialysis, reactions were supplemented to 5% glycerol, and subsequently separated on a 2% agarose gel in 0.5×TBE buffer at 4° C. […] Alternatively, where indicated in FIGS. 8A and 8C, cGAS-DNA complexes were assembled by incubating directly in reaction buffer containing 20 mM HEPES-NaOH pH 7.8, […], 1 mM DTT at 4° C. for 20 min and analyzed by electrophoretic mobility shift analysis as indicated above. […]

[2] = target: T1, hcGAS K187N/L195R (hcGAS*) (Homo sapiens, UniProt Q8N884 SEQ:1-366); assay: EMSA; gradient dialysis to 50 mM KCl, 4 C; stable low-MW complex restored, oligomers unaffected; details: tags: untagged (6xHis-SUMO2 removed with SENP2); chain copies: 2 (2:2 complex with DNA, stated)
T1 chain: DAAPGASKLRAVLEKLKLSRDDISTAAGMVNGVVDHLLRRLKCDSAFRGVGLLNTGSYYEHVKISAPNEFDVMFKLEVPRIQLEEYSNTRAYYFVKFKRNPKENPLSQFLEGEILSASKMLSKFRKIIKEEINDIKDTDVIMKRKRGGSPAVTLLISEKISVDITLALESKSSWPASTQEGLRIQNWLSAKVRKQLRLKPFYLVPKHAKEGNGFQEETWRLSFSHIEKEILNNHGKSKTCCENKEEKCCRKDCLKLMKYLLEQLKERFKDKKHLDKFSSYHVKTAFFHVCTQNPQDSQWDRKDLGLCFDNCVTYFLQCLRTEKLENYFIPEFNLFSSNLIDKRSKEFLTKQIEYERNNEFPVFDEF
Procedure: as §1

[3] = target: hcGAS catalytic domain WT (Homo sapiens, UniProt Q8N884 SEQ:1-366); assay: EMSA; gradient dialysis to 50 mM KCl, 4 C; preferentially higher-order oligomers; details: tags: untagged (6xHis-SUMO2 removed with SENP2)
Procedure: as §1

[4] = target: mcGAS humanized K187/L195 (UniProt Q8C6L5 SEQ:1-361, N172K,R180L); assay: EMSA; gradient dialysis to 50 mM KCl, 4 C; low-MW complex ablated, higher-order oligomers retained; details: tags: untagged (6xHis-SUMO2 removed with SENP2)
Procedure: as §1

Measured: binding result

Sequence of mcGAS humanized K187/L195 (Q8C6L5 147-507 N172K/R180L): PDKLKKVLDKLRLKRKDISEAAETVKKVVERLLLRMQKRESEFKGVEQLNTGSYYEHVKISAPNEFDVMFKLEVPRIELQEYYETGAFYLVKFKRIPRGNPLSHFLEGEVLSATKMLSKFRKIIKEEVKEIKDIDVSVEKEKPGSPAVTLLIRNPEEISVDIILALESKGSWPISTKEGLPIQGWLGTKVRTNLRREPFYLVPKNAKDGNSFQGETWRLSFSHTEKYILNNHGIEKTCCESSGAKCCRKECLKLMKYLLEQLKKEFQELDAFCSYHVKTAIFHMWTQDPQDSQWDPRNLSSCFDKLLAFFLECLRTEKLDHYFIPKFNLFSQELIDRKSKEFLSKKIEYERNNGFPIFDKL
Sequence of mcGAS catalytic domain WT (Q8C6L5 147-507): as the sequence (Q8C6L5 147-507 N172K/R180L) above, with K26N, L34R counted along it

B1: 45 bp interferon stimulatory DNA (dsDNA)
DNA 1: TACAGATCTACTAGTGATCTATGACTGATCTGTACATGATCTACA
DNA 2: TGTAGATCATGTACAGATCAGTCATAGATCACTAGTAGATCTGTA
binds: [1] | [2] | [3] | [4]
